This is an account of results in article PMC12552968, “The RING-finger domain of Arabidopsis RMR functions as an E3 ligase essential for post-Golgi trafficking” (The Journal of Biological Chemistry, 2025).

The target of the test is T1, Arabidopsis E2 ubiquitin-conjugating enzyme AtUbc30 (Arabidopsis, UniProt Q9FKT3 1-148).
T1 construct: AtUbc30, Arabidopsis E2 ubiquitin-conjugating enzyme, At5g56150; source: E. coli SoluBL21, purified (GSTrap Sepharose, PreScission cleavage, gel filtration)
Kind of test: pull-down; AtUbc30 (50 to 60 μM) with equimolar GST, wildtype or I234Y GST-AtRMR1-RING in the presence of GSTrap Sepharose; 30 mM Tris pH 7.5, 150 mM NaCl, 2 mM DTT; 4 h at 4 °C; eluted with 20 mM reduced glutathione; 15% SDS-PAGE, Coomassie blue. The settings on record: both partners purified.

T1 sequence (Q9FKT3 whole entry): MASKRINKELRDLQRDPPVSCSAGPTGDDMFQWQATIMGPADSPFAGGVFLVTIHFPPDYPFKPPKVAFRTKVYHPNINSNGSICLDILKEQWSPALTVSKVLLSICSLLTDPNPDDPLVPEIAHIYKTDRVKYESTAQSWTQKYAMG

B1: GST-tagged RING-H2 domain of Arabidopsis RMR isoform-1 (GST-AtRMR1-RING), wildtype (domain or fragment, UniProt Q9M622 206-283, looked up)
chain: RLDAKLVHTLPCFTFTDSAHHKAGETCAICLEDYRFGESLRLLPCQHAFHLNCIDSWLTKWGTSCPVCKHDIRTETMS
notes: AtRMR1 (receptor-homology-transmembrane-RING-H2 protein 1), Arabidopsis, At5g66160, RING-H2 domain, residues 206-283; The methods tell only the purification of the form with the GST tag cleaved; also called E3; source: E. coli SoluBL21 (pGEX-6p-1), recombinant
Turning to B1, the binding result is on record as “binds”.
